The target of data set [1] is T1, mSNAPc#2 4Mu Y389A;R445A;R151A;W350A (Homo sapiens) (UniProt Q5SXM2+Q92966+Q16533+O75971).
T1 sequence 1: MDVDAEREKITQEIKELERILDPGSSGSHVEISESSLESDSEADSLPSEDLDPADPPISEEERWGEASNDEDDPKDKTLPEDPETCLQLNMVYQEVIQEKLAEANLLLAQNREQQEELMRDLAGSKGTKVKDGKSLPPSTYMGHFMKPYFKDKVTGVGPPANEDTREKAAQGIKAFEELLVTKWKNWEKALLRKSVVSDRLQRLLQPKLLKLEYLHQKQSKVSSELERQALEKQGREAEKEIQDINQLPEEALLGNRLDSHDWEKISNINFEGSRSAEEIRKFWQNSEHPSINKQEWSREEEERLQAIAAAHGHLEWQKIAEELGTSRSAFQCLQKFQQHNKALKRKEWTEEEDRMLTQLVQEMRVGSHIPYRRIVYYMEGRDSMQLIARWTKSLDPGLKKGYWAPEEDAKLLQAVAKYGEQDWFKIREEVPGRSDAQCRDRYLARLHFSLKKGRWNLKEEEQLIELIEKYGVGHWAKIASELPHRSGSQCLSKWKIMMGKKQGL
T1 sequence 2: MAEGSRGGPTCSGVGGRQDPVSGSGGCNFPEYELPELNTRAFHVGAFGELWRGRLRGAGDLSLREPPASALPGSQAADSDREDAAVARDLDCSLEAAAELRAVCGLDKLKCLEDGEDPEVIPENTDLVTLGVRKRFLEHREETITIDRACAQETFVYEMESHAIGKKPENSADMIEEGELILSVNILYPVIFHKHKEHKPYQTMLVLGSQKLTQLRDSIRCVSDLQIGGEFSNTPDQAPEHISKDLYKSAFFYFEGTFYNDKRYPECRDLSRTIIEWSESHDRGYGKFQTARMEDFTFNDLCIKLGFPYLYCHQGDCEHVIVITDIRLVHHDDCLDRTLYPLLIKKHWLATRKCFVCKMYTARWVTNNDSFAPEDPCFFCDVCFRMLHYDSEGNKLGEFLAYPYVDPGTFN
T1 sequence 3: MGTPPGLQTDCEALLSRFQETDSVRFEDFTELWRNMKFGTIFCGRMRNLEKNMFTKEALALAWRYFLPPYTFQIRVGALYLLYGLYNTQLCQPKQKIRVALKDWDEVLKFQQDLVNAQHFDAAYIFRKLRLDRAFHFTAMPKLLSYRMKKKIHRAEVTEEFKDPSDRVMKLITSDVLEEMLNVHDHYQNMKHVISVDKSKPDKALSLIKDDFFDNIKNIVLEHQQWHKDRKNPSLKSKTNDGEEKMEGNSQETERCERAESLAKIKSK
T1 sequence 4: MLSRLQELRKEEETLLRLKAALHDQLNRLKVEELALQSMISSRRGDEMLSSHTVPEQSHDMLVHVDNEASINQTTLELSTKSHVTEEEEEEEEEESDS
Put plainly: SPR. Conditions: EMSA: 100 mM KCl, 25 mM HEPES-K pH 7.6, 12.5 mM MgCl2, 10 uM ZnCl2, 0.1 mM EDTA, 10% glycerol, 3 mM DTT, 0.5 mM PMSF, 50 nM DNA, RT 30 min; SPR: 100 mM KCl, 12. On the technique in general: Mobility shift assays separate free from complexed probe on a gel.

Data set [2] has as its target T2, mSNAPc#2 5Mu Y389A;R445A;R151A;K194A;W350A (Homo sapiens) (UniProt Q5SXM2+Q92966+Q16533+O75971).
T2 sequence 1: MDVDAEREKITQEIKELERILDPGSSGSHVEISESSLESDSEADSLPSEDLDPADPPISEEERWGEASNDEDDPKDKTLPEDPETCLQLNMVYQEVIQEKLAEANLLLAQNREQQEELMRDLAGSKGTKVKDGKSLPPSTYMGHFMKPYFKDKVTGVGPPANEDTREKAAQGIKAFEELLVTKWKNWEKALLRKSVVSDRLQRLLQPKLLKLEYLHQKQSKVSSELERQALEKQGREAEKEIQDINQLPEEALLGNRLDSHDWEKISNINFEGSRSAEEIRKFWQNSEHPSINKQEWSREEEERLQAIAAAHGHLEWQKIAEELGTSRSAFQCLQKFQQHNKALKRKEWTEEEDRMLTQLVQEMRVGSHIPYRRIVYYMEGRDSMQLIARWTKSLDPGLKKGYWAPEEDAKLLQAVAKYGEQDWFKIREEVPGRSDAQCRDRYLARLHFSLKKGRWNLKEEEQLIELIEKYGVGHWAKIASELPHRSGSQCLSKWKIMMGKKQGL
T2 sequence 2: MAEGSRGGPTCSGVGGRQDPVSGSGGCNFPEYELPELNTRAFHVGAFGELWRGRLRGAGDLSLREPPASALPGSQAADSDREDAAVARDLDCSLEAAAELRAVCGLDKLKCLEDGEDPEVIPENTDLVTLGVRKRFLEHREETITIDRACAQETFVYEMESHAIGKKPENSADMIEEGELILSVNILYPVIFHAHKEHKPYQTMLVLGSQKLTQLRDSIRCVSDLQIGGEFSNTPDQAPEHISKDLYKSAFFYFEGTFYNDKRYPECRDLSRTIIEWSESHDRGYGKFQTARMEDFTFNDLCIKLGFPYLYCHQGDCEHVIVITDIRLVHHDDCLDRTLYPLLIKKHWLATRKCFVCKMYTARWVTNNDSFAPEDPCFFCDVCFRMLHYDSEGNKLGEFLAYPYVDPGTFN
T2 sequence 3: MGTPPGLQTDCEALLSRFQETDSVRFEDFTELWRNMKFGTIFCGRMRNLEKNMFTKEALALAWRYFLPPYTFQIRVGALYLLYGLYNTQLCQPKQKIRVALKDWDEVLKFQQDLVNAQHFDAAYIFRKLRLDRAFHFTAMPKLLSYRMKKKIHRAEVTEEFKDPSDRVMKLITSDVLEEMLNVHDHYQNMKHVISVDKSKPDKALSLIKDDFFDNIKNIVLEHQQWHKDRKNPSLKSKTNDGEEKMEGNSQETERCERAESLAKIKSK
T2 sequence 4: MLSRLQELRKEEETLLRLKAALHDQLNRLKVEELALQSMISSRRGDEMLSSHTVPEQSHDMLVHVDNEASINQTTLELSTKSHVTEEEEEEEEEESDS
Put plainly: SPR. The following applies: EMSA: 100 mM KCl, 25 mM HEPES-K pH 7.6, 12.5 mM MgCl2, 10 uM ZnCl2, 0.1 mM EDTA, 10% glycerol, 3 mM DTT, 0.5 mM PMSF, 50 nM DNA, RT 30 min; SPR: 100 mM KCl, 12.

In data set [3] the target is T3, mSNAPc#2 WT (Homo sapiens, UniProt Q5SXM2;Q92966;Q16533;O75971 1-505;1-411;1-268;1-98).
T3 sequence 1: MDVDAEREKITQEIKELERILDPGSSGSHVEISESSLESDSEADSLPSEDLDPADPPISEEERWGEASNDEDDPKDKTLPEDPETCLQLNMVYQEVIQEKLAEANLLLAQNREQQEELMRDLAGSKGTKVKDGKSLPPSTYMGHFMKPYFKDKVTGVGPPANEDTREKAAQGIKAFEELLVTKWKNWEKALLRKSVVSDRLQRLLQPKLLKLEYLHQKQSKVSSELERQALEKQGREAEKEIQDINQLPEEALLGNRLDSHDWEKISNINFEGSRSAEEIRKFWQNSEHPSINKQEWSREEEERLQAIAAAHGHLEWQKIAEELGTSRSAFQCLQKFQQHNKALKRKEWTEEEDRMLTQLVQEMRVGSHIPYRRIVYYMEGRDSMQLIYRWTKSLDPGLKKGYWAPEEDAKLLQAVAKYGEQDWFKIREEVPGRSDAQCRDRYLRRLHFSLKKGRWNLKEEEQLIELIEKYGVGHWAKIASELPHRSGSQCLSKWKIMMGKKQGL
T3 sequence 2: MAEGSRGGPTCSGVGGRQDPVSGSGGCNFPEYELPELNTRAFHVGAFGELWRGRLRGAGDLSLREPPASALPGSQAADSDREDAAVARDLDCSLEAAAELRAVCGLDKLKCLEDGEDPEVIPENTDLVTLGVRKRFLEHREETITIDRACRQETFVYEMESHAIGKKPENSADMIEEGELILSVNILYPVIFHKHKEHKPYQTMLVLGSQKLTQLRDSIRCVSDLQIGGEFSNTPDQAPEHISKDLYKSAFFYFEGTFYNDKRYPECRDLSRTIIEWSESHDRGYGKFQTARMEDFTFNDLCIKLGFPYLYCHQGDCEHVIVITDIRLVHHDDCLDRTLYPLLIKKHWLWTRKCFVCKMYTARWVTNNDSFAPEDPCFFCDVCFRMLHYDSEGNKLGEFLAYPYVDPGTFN
T3 sequence 3: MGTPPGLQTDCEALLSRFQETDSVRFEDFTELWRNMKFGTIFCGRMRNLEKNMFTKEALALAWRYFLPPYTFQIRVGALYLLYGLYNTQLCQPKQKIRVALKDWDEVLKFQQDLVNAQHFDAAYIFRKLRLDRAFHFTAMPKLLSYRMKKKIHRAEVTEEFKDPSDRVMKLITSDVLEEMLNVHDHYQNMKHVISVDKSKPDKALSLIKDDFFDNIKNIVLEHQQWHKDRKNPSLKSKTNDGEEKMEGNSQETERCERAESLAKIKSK
T3 sequence 4: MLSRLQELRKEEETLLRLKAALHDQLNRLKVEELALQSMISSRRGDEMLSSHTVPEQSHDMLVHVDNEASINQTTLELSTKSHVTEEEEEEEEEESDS
Put plainly: EMSA; 200 and 1000 nM protein; EMSA: 100 mM KCl, 25 mM HEPES-K pH 7.6, 12.5 mM MgCl2, 10 uM ZnCl2, 0.1 mM EDTA, 10% glycerol, 3 mM DTT, 0.5 mM PMSF, 50 nM DNA, RT 30 min; SPR: 100 mM KCl, 12.5 mM MgCl2, 10 uM ZnCl2, 0.1 mM EDTA, 0.05% P20, 25 C. The following applies: protein: recombinant; tags: FLAG N-term SNAP190; 6xHis N-term SNAP43; copies: 1;1;1;1; label: 5'-FAM.

Data set [4] deals with T4, mSNAPc#11 (rod module) (Homo sapiens, UniProt Q5SXM2;Q16533;O75971 1-143;148-268;1-98).
T4 sequence 1: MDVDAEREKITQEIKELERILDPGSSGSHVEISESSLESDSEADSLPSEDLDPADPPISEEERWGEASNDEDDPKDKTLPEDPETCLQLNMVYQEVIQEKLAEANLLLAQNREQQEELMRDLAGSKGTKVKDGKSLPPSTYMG
T4 sequence 2: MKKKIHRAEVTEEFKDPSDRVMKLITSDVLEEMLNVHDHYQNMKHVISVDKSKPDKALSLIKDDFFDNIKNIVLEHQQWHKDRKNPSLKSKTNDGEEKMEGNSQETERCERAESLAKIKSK
T4 sequence 3: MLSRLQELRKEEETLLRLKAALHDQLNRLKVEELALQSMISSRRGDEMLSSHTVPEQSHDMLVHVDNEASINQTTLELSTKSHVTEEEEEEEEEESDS
The experiment in a line: EMSA; 200 and 800 nM protein; EMSA: 100 mM KCl, 25 mM HEPES-K pH 7.6, 12.5 mM MgCl2, 10 uM ZnCl2, 0.1 mM EDTA, 10% glycerol, 3 mM DTT, 0.5 mM PMSF, 50 nM DNA, RT 30 min; SPR: 100 mM KCl, 12.5 mM MgCl2, 10 uM ZnCl2, 0.1 mM EDTA, 0.05% P20, 25 C. Conditions: protein: recombinant; tags: Strep SNAP19; MBP SNAP190; MBP N-term SNAP43; copies: 1;1;1; label: 5'-FAM on positive strand (EMSA).

As usually defined, the Kd is the constant that tells how readily two partners part at equilibrium. Low readings indicate higher affinity, high ones lower affinity. “TGCTTACCGTAACTTGAAAGTATTT (double strand) [25 bp hU6-1 PSE (SPR)]”: the equilibrium dissociation constant (Kd) came out at 8.91 µM in data set [1] and 49 µM in data set [2].

B1: PSE 6Sub (dsDNA)
DNA 1: TGCTTACCTGAACTTGCCATCATTT
DNA 2: AAATGATGGCAAGTTCAGGTAAGCA
For B1, in data set [3], the binding result is on record as “no binding”.

B2: PSE 8Sub (dsDNA)
DNA 1: TGCTTACATGAACTTCCCATCATTT
DNA 2: AAATGATGGGAAGTTCATGTAAGCA
Regarding B2, the binding result in data set [3] is given as “no binding”.

B3: 25 bp hU6-1 PSE (dsDNA)
DNA 1: TGCTTACCGTAACTTGAAAGTATTT
DNA 2: AAATACTTTCAAGTTACGGTAAGCA
On to B3, for which the binding result in data set [4] was “no binding”.
